The labels stand for the following.
B1: GST-PHD1 (S287-K347) of KDM5A (domain or fragment)
chain: SVNFVDLYVCMFCGRGNNEDKLLLCDGCDDSYHTFCLIPPLPDVPKGDWRCPKCVAEECSK

Where no end group is shown, it is not given here. [ ]: non-standard residue; d: D form. pT = C[C@@H](OP(=O)(O)O)[C@H](N)C(=O)O

The target of experiment [1] is B1. In words: FP; H3T6ph.
In experiment [2] the target is B1. The experiment is described as follows: FP.
The target of experiment [3] is H3 10mer peptide mutated at R2 (UniProt P68431 2-11). In words: FP; H3R2A.
Experiment [4] concerns the target B1. The experiment is described as follows: FP; H3R8me2s (symmetric dimethyl).
Experiment [5] addresses B1. In words: FP; H3R8me2a (asymmetric dimethyl).
For experiment [6], the target named is B1. In words: FP; H3R2me2s (symmetric dimethyl).
In experiment [7] the target is B1. In words: FP; H3R2me2a (asymmetric dimethyl).

These results are taken from publication PMC6327041 (2019).

Regarding ARTKQ[pT]ARKS [H3 10mer peptide phosphorylated at T6], in experiment [1], the Kd came out at 72 µM. For the molecule ARTKQTARKS (acetyl-lysine at 9 (K9ac)) [H3K9ac 10mer peptide], the equilibrium dissociation constant (Kd) in experiment [2] came out at 1.01 µM. With B1, in experiment [3], binding was put at a Kd of 205 µM. In experiment [2], ARTKQTARKS (trimethyl-lysine at 9 (K9me3)) [H3K9me3 10mer peptide] displayed a Kd of 0.74 µM. Still for that read-out and setting: the result for ARTKQTARKS [unmodified H3 10mer effector peptide (H3 Ala1-Ser10)] reads 0.996 µM. Take ARTKQTARKS (also: methylated Arg8, degree of methylation not given here) [H3 10mer peptide methylated at R8]: the figures for the dissociation constant Kd in experiment [4] and in experiment [5] were 2.01 µM and 1.84 µM, respectively. Take ARTKQTARKS (also: methylated Arg2, degree of methylation not given here) [H3 10mer peptide methylated at R2]: the equilibrium dissociation constant (Kd) in experiment [6] came to 5.31 µM; in experiment [7], 5.41 µM.

In general, Kd refers to the free concentration of one partner at which half of the binding sites on the other are occupied at equilibrium, for simple one-to-one binding.
